The record followed here is paper PMC2751797.

Substrate in this series: NC(=O)c1cc(N2CC2)c([N+](=O)[O-])cc1[N+](=O)[O-]
The series can be described thus: purified protein. The conditions noted are these: NADPH 60 μM fixed, 10 mM Tris-HCl pH 7.5, 23 °C. The series is classed as biochemical, Escherichia coli.

B1: NfsB (His6-NfsB) (Escherichia coli K-12) (protein)
chain: MDIISVALKRHSTKAFDASKKLTPEQAEQIKTLLQYSPSSTNSQPWHFIVASTEEGKARVAKSAAGNYVFNERKMLDASHVVVFCAKTAMDDVWLKLVVDQEDADGRFATPEAKAANDKGRKFFADMHRKDLHDDAEWMAKQVYLNVGNFLLGVAALGLDAVPIEGFDAAILDAEFGLKEKGYTSLVVVPVGHHSVEDFNATLPKSRLPQNITLTEV
Usually Km stands for the concentration of substrate that gives half-maximal velocity. As usually defined, the kcat/Km is the second-order rate constant that governs catalysis at low substrate concentration. In the case of B1, the Michaelis constant (Km) turned out to be 79 ± 22 µM and the kcat/Km is 26000 M⁻¹ s⁻¹.
